Measurements: patent US20040077572

Test system: Sleeping Beauty transposase SB10 (synthetic (reconstructed salmonid))
Experiment: cell_activity

**Q.** Lo(AAG) transposon was tested. Which activity (relative excision) did it give?
**A.** Its activity is 11%.

**Q.** How did the activity (relative excision, transposition 101%) turn out when LoLi-LiLo transposon was run?
**A.** The activity was 95%.

**Q.** Which activity (relative excision, transposition 45%) does the source give for LoLo-RiRo transposon here?
**A.** Its activity is 46%.

**Q.** LoLo-RoRo transposon was tested. Which activity (transposition reduced nearly 85%) did it give?
**A.** The activity was 15%.

**Q.** Which activity (relative excision, transposition 29%) does the source give for RoRi-RiRo transposon here?
**A.** The activity was 43%.

**Q.** Which activity (relative transposition in HeLa) does the source give for “TANNNNCAGTTGAAGTCGGAAGTTTACATACACTTAAG (double strand) [TAN4Lo transposon]” here?
**A.** The activity was 30%.

**Q.** Which activity (just under four-fold over pT/SV40neo) does the source give for pT2/SV40Neo transposon here?
**A.** The activity was 4 fold.
